Here are results for 14 molecules from PMC12486381 (Molecular Biology and Evolution, 2025).

Assay [1] deals with DfrB homolog BBD029md-00326_13692. As to the kind of experiment: SEC. Background: SEC sorts molecules by how far they enter the pores of the column.
In the next assay the test system is A0A0N7CEH1. As to the kind of experiment: initial rate of NADPH and DHF depletion at […] nm, Michaelis-Menten fit. The assay is classed as biochemical, Skermania phage SPI1. The following applies: 50 mM potassium phosphate pH 7, 27 °C.
The next assay deals with A0A5E7Z8W7. Described as above. The assay is classed as biochemical, Hoeflea sp. EC-HK425. The settings on record: 50 mM potassium phosphate pH 7, 27 °C.
Another assay concerns BBD029md-00326_13692. The assay is described as above. The following applies: 50 mM potassium phosphate pH 7, 27 °C. The assay is classed as biochemical.
In another assay the test system is A0A839U7A6. The assay is described as above. The assay is classed as biochemical, Phyllobacterium trifolii. The following applies: 50 mM potassium phosphate pH 7, 27 °C.
The next assay has as its system UPI001402A2DF. The description is as above. It is filed as biochemical. The settings on record: 50 mM potassium phosphate pH 7, 27 °C.
A further assay addresses DfrB homolog E2SFM2. As to the kind of experiment: SEC.
A further assay addresses DfrB homolog A0A0N7CEH1. As to the kind of experiment: SEC.
The next assay concerns the target DfrB homolog A0A345GTK3. As to the kind of experiment: SEC.
Another assay deals with DfrB homolog A0A839U7A6. As to the kind of experiment: SEC.
Assay [2] concerns DfrB-TS (BBD027md-00173_03685). As to the kind of experiment: initial rate of NADPH and DHF depletion at […] nm, Michaelis-Menten fit. It is filed as biochemical. The settings on record: read-out: K M ^DHF; DfrB domain; 50 µM NADPH, 50 mM potassium phosphate pH 7, 27 °C.
In another assay the target is DfrB homolog A0A1M7UVF4. As to the kind of experiment: SEC.
A further assay deals with DfrB homolog A0A1R3X8F5. As to the kind of experiment: SEC.
Assay [3] has as its target DfrB-TS (BBD027md-00173_03685). As to the kind of experiment: SEC.
Assay [4] concerns the target DfrB1 (type B dihydrofolate reductase 1). As to the kind of experiment: SEC.
In another assay the target is DfrB homolog A0A5E7Z8W7. As to the kind of experiment: SEC.
The target of assay [5] is DfrB homolog UPI001402A2DF. As to the kind of experiment: SEC.
Another assay concerns the target DfrB homolog A0A6J5PTB3. As to the kind of experiment: SEC.
[6] abbreviates: read-out: K M ^NADPH, 50 µM DHF.
Setting [7] is: read-out: K M ^DHF, 50 µM NADPH.

“And” between values parts separate entries of the source, which are not always exact repeats. Identical values can stand only once. Like-named read-outs stand apart in the source and are kept apart here.

Sequence of DfrB1 (type B dihydrofolate reductase 1) (P00383 whole entry): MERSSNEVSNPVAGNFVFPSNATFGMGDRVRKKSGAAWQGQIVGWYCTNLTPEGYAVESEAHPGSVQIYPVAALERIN

Consider “DfrB homolog BBD029md-00326_13692 (enzyme)”, for which, in assay [1], the stoichiometry N amounted to 4. Take `NC(=O)C1=CN([C@@H]2O[C@H](COP(=O)(O)OP(=O)(O)OC[C@H]3O[C@@H](n4cnc5c(N)ncnc54)[C@H](OP(=O)(O)O)[C@@H]3O)[C@@H](O)[C@H]2O)C=CC1` [NADPH]: the Km turned out to be 5.7 ± 0.6 µM in the assay with A0A0N7CEH1 (setting [6]); 18 ± 2 µM in the assay with A0A5E7Z8W7 (setting [6]); 20 ± 10 µM with BBD029md-00326_13692 (setting [6]); 10 ± 5 µM in the assay with A0A839U7A6 (setting [6]); 11 ± 1 µM with UPI001402A2DF (setting [6]).

The molecule DfrB homolog E2SFM2 (natural protein) returned a stoichiometry N in the assay with DfrB homolog E2SFM2 of 4. In the assay with DfrB homolog A0A0N7CEH1, DfrB homolog A0A0N7CEH1 (enzyme) gave a stoichiometry N of 4. Turning to “DfrB homolog A0A345GTK3 (natural protein)”, in the assay with DfrB homolog A0A345GTK3, the stoichiometry N worked out at 2. DfrB homolog A0A839U7A6 (enzyme) came in with a stoichiometry N with DfrB homolog A0A839U7A6 of 4.

As to `Nc1nc2c(c(=O)[nH]1)N=C(CNc1ccc(C(=O)N[C@@H](CCC(=O)O)C(=O)O)cc1)CN2` [DHF], the Km amounted to 6 ± 2 µM with A0A0N7CEH1 (setting [7]); 7 ± 4 µM in the assay on A0A5E7Z8W7 (setting [7]); 36 ± 4 µM with BBD029md-00326_13692 (setting [7]); 44 ± 5 µM in the assay with A0A839U7A6 (setting [7]); 28 ± 3 µM in assay [2]; 130 ± 20 µM with UPI001402A2DF (setting [7]). As for “DfrB homolog A0A1M7UVF4 (natural protein)”, the stoichiometry N with DfrB homolog A0A1M7UVF4 is 2. In the assay with DfrB homolog A0A1R3X8F5, “DfrB homolog A0A1R3X8F5 (natural protein)” displayed a stoichiometry N of 4. For DfrB-TS (BBD027md-00173_03685) (enzyme), the stoichiometry N in [3] is 4 and 8.

In the case of “DfrB1 (type B dihydrofolate reductase 1) (enzyme)”, in assay [4], the stoichiometry N is 4. DfrB homolog A0A5E7Z8W7 (enzyme) yielded a stoichiometry N with DfrB homolog A0A5E7Z8W7 of 4. DfrB homolog UPI001402A2DF (enzyme) registered a stoichiometry N in assay [5] of 4. Molecule DfrB homolog A0A6J5PTB3 (enzyme) gave a stoichiometry N with DfrB homolog A0A6J5PTB3 of 4.

The stoichiometry N is a count of units in the complex or per binding partner.
